Numbering of substitutions follows the chain as printed. Names and notes keep the numbering of the source.
T1: cynomolgus monkey CD96 on cynomolgus monkey PBMCs (cynomolgus monkey, UniProt A0A2K5TWV6 22-569)
T1 construct: whole, on cells
T1 sequence: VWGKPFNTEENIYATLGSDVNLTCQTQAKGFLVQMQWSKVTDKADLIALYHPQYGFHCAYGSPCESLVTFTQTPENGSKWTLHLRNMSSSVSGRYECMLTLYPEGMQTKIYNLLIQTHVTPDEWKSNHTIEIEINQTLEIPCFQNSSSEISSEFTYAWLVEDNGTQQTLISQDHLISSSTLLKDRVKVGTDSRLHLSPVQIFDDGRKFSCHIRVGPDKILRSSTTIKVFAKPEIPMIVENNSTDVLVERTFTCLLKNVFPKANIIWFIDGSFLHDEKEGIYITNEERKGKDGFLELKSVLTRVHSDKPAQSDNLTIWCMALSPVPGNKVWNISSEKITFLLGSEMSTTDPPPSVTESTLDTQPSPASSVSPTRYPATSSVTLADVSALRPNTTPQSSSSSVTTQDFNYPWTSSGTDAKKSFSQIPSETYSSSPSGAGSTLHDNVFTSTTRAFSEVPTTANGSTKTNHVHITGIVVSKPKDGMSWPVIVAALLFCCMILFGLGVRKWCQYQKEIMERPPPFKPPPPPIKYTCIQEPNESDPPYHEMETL

T2: hu-CD96 isoform 1 on HEK293T cells (human, UniProt P40200 22-585)
T2 construct: Origene RC213845, transient expression; also called HEK293T-CD96 (iso1)
T2 sequence: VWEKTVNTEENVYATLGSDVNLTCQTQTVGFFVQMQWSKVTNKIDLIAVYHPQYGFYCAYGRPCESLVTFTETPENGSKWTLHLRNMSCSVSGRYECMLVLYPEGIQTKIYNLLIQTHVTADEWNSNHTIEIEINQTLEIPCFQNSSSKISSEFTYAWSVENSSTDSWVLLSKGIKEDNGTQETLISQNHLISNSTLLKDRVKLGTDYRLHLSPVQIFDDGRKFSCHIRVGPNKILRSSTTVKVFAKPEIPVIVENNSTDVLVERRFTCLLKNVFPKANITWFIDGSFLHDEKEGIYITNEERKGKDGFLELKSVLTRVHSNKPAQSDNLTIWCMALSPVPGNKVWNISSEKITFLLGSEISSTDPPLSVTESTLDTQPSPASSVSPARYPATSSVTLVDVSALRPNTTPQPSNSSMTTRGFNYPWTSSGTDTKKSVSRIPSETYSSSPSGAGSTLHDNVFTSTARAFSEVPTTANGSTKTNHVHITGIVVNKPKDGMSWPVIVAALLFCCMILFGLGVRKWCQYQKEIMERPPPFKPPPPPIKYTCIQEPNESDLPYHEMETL

T3: hu-CD96 isoform 2 on CHO cells (human, UniProt P40200 22-585)
T3 construct: also called CHO-CD96 (isoform 2); CD96-CHOs
T3 sequence: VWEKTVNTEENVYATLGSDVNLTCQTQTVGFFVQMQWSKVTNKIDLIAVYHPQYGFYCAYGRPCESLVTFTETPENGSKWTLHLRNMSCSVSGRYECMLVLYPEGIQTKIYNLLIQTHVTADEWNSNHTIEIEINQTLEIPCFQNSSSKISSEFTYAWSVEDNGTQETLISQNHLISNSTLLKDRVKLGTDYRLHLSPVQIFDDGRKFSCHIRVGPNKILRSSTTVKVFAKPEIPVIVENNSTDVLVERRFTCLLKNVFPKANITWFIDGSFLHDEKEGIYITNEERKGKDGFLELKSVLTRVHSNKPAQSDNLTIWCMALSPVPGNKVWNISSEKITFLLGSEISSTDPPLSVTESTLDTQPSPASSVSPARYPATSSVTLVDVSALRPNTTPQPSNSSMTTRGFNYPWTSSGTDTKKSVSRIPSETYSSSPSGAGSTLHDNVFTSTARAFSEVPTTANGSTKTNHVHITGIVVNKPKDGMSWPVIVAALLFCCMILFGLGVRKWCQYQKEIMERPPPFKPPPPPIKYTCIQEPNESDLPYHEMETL

B1: mAb1.v7.NGS10 IgG (antibody, V domains shown)
VH: EVQLVQSGAEVKKPGASVKVSCKASGFTFTNNFMHWVRQAPGQGLEWIGFIHANSGITNINEKFKNRVTMTTDTSTSTAYMELRSLRSEDTAVYYCRSDGIYEGYFDYWGQGTLVTVSS
VL: DIQLTQSPSSLSASVGDRVTITCKASQNVGTAIVWYQQKPGKAPKVLIYSASTRYTGVPSRFSGSGSGTDFTLTISSLQPEDFATYYCQQYSSSPLTFGQGTKVEIKG
notes: human IgG1 N297G
B2: mAb1.v7.NGS11 IgG (antibody, V domains shown)
VH: B1 VH with I101V
VL: B1 VL
notes: human IgG1 N297G
B3: mAb1.v7.NGS9 IgG (antibody, V domains shown)
VH: B1 VH with F50M, I101V
VL: B1 VL
notes: human IgG1 N297G
B4: h10G1 IgG (humanized 10G1) (antibody, V domains shown)
VH: EIQLVQSGSELKKPGASVKVSCKASGYPFTTYGMSWVRQAPGQGLEWMGWINTDSGVPTYADDFKGRFVFSLDTSVSTAYLQISSLKAEDTAVYFCARNIYYGWGNFDYWGQGTLVTVSS
VL: EIVMTQSPDFQSVTPKEKVTITCRASQDIYRNLHWYQQKPDQTPKLLIKHASDSISGIPSRFSGSGSGTDFTLTINSLEAEDAAAYYCLQGYSMPYTFGGGTKVEIKG
notes: human IgG1 N297G
B5: 7E5, purified hybridoma antibody (antibody, V domains shown)
VH: QVQLKESGPGLVAPSQSLSIICTVSGFSLTNYGIHWIRQPPGKGLEWLGIIWAGGSTNYNSALMSRLTISKDNSKSQVFLKMNSLQTNDTAIYYCARVSMMGFAYWGQGTLVTVSA
VL: QAVVTQESALTTSPGETVTLTCRSSTGAVTTSNYANWVQEKPDHLFTGLIGGTNNRAPGVPARFSGSLIGDKAALTITGAQTEDEAIYFCSLWYGSHWVFGGGTKLTVL
notes: murine hybridoma IgG
B6: mAb1.v7 IgG (humanized 12F8) (antibody, V domains shown)
VH: B1 VH with F33W, F50M, A53P, I101T
VL: B1 VL
notes: human IgG1 N297G
B7: 10G1 (clone 10G1.3G8), purified hybridoma antibody (antibody, V domains shown)
VH: QIQLVQSGPELKKPGETVKISCKASGYPFTTYGMSWVKQAPGKGLKWMGWINTDSGVPTYADDFKGRFAFSLETSANTAYLQINSLKNEDAATYFCARNIYYGWGNFDYWGQGTILTVSS
VL: DILMTQSPTTLSVTPGETVSLSCRASQDIYRNLHWYQQKSQGTPRLLIKHASDSISGIPSRFTGSGSGTDFTLSINSVKPEDEGIYYCLQGYSMPYTFGGGTKLEIK
notes: murine hybridoma IgG
B8: 9H4, purified hybridoma antibody (antibody, V domains shown)
VH: EVQLLETGGGLVKSGGSLKLSCAASGFTFSDYYMYWVRQTPEKRLEWVAAISDDGTYTYYPDSVKGRFTISRDNANNYLYLQMSSLKSEDTAIYYCAKAGSYDYFDVWGAGTTVTVSS
VL: DIVLTQSPASLAVSLGQRAIISCKASQSVTFADTGLMHWYQQKPGQQPKLLIYRASNLEVGVPTRFSGSGSGTDFTLNIHPVEEEDVATYYCQQSREYPWTFGGGTKLEIK
notes: murine hybridoma IgG

Biological target: T1, cynomolgus monkey CD96 on cynomolgus …
Assay: FACS, Ab 0.00512 nM
Method: (§1) The ability of the anti-CD96 antibodies to bind primary immune cells from human and cynomolgus monkey with lower level of receptor expression was measured. Human PBMCs (StemCell Technologies, catalog #70025) and cynomolgus monkey PBMCs (Primate Biologicals, catalog #CM-MC) were incubated with human TruStain FcX (Biolegend, catalog #422302) for 10 minutes at 4° C., followed by incubation with an anti-CD96 antibody for 20 minutes at 4° C. Cells were washed and the anti-CD96 antibody binding was detected by incubation with anti-mouse IgG-PE (Thermo Fisher, catalog #M30204) or anti-human IgG (Fab) 2-PE (Thermo Fisher, catalog #H10104) for 20 minutes at 4° C. Cells were washed, and immune subtypes were labeled with anti-CD3 (BD, catalog #557705), anti-CD4 (Biolegend, catalog #317424) and anti-CD8 (BD, catalog #557760) for 20 minutes at 4° C. Cell binding was analyzed by flow cytometry with a CytoFLEX (Beckman Coulter). Binding curves were calculated as a percentage of cells positive for bound antibody in the cell type of interest.

| Binder | % positive [%] |
| --- | --- |
| B1 | 9.5 |
| B2 | 10.4 |
| B3 | 7.1 |
| B4 | 7.4 |

Biological target: T2, hu-CD96 isoform 1 on HEK293T cells
Assay: FACS, Ab 10 nM
Method: (§2) Isoform 1 of hu-CD96 (Origene, catalog #RC213845) was transiently expressed in HEK293T cells following standard lipofectamine or Fugene transfection protocol. […] Cells were washed, and binding was detected by incubation with anti-mouse IgG-FITC (Biolegend, catalog #406001) for 20 minutes at 4° C. Cell binding was analyzed by flow cytometry with a CytoFLEX (Beckman Coulter). Binding curves were calculated as a percentage of cells positive for bound antibody.

| Binder | % positive [%] |
| --- | --- |
| B5 | 47.4 |
| B6 | 48.8 |
| B7 | 53.4 |
| B8 | 48.4 |

Biological target: T1, cynomolgus monkey CD96 on cynomolgus …
Assay: FACS, Ab 3.2 nM
Method: as §1

| Binder | % positive [%] |
| --- | --- |
| B1 | 76.7 |
| B2 | 78.4 |
| B3 | 77.9 |
| B4 | 58.1 |

Biological target: T2, hu-CD96 isoform 1 on HEK293T cells
Assay: FACS, Ab 50 nM
Method: as §2

| Binder | % positive [%] |
| --- | --- |
| B5 | 52.1 |
| B6 | 61 |
| B7 | 56.1 |
| B8 | 57.8 |

Biological target: T3, hu-CD96 isoform 2 on CHO cells
Assay: FACS, Ab 0.016 nM
Method: as §2
Isoform 2 of hu-CD96 (DNA construct: Origene, catalog #RC221005) was expressed on a single-cell-clone-derived CHO stable cell line. Binding of the anti-CD96 antibodies to the CHO cells were determined as described above with isoform 1 of hu-CD96.

| Binder | % positive [%] |
| --- | --- |
| B5 | 3.6 |
| B6 | 0.4 |
| B7 | 0.4 |
| B8 | 0.3 |

Reference: patent US12365732 (23ANDME, dated 2025)
